Here are results for four molecules from paper PMC10471779, “Antibody-mediated neutralization of galectin-3 as a strategy for the treatment of systemic sclerosis” (Nature Communications, 2023).

Holding throughout (settings): both partners purified
The target of assay [1] is T1, recombinant mouse galectin-3, full length, His-tagged (mGal-3-FL-His Nter) (Mus musculus, UniProt P16110).
T1 construct: galectin-3, mouse, full length; source: recombinant, produced by Novalix (Illkirch, France); not shown: His, N-terminal, kept
The assay is described as follows: SPR; Biacore T-200, mAb captured on anti-human Fc CM5 surface, Gal-3 0.5 to 50 nM injected, single-cycle kinetics, HBS-P (10 mM HEPES, 150 mM NaCl, 0.05% P20), 25 C, 1:1 Langmuir fit.

For assay [2], the target named is T1, recombinant mouse galectin-3, full …. The assay is described as follows: ELISA; dose-response binding ELISA, IgG 0.0009 to 500 nM on immobilised hGal-3-FL and mGal-3-FL (hGal-14 in Supplementary Fig. 7b); detection by anti-hFab-HRP. In general terms: ELISA stands for enzyme-linked immunosorbent assay.
The target of assay [3] is T2, recombinant human galectin-3, full length, His-tagged (hGal-3-FL-His Nter) (Homo sapiens, UniProt P17931).
T2 construct: galectin-3, human, full length; the SPR methods say only recombinant Gal-3 (Novalix); also called FL hGal-3; FL-Gal-3; source: recombinant, produced by Novalix (Illkirch, France); not shown: His, N-terminal, kept
The description is as above.

Assay [4] has as its target T3, human galectin-14 (Homo sapiens, UniProt Q8TCE9).
T3 construct: galectin-14, human; also called hGal-14; Gal-14; source: bought: Novus Biologicals NBP1-50082
Described as above.

For assay [5], the target named is T4, recombinant human galectin-3 carbohydrate recognition domain, His-tagged (hGal-3-CRD-His Nter) (human, UniProt P17931).
T4 construct: galectin-3, human, carbohydrate recognition domain; also called CRD of hGal-3; source: recombinant, produced by Novalix (Illkirch, France); not shown: His, N-terminal, kept
The assay is described as follows: ELISA; competition ELISA: hGal-3-CRD coated at 1 ug/mL, IgG 0.0006 to 780 nM for 1 h, washed, then asialofetuin at 8 ug/mL for 30 min; bound asialofetuin detected by HRP-labelled anti-asialofetuin antibody.

The target in assay [6] is T5, recombinant human galectin-3, full-length (Homo sapiens, UniProt P17931).
T5 construct: galectin-3 (Gal-3), human, full-length; the His tag is named for the Novalix protein in the ELISA methods; the SPR methods say only 'recombinant Gal-3 from multiple species (Novalix)'; also called human Gal-3 (FL); hGal-3 (FL); source: recombinant, produced by Novalix
The assay is described as follows: SPR; Biacore T-200; mAb captured (400-680 RU) on a CM5 chip with immobilised anti-human Fc mAb; Gal-3 0.5-50 nM injected, single-cycle kinetics, 210 s association, 600 s dissociation, 30 uL/min; HBS-P (10 mM HEPES, 150 mM NaCl, 0.05% P20), 25 °C; 1:1 Langmuir fit; duplicates.

Assay [7] concerns the target T6, recombinant rat galectin-3 carbohydrate recognition domain (Rattus norvegicus, UniProt P08699).
T6 construct: galectin-3 (Gal-3), rat, carbohydrate recognition domain; also called rat Gal-3 (CRD); source: recombinant, Novalix
The description is as above.

Assay [8] deals with T7, recombinant dog galectin-3 carbohydrate recognition domain (Canis lupus familiaris, UniProt P38486).
T7 construct: galectin-3 (Gal-3), dog, carbohydrate recognition domain; also called dog Gal-3 (CRD); source: recombinant, Novalix
The description is as above.

Assay [9] addresses T8, recombinant mouse galectin-3, full-length (Mus musculus, UniProt P16110).
T8 construct: galectin-3 (Gal-3), mouse, full-length; the His tag is named for the Novalix protein in the ELISA methods; the SPR methods say only 'recombinant Gal-3 from multiple species (Novalix)'; also called mouse Gal-3 (FL); mGal-3 (FL); source: recombinant, produced by Novalix
Described as above.

Assay [10] concerns the target T9, recombinant human galectin-3 carbohydrate recognition domain (Homo sapiens, UniProt P17931).
T9 construct: galectin-3 (Gal-3), human, carbohydrate recognition domain; the His tag is named in the ELISA methods, not in the SPR methods; also called hGal-3 (CRD); hGal-3-CRD-His Nter; source: recombinant, produced by Novalix
The assay is described as above.

Where a chain is given by its changes, count along the chain named.

T5 sequence (P17931 whole entry): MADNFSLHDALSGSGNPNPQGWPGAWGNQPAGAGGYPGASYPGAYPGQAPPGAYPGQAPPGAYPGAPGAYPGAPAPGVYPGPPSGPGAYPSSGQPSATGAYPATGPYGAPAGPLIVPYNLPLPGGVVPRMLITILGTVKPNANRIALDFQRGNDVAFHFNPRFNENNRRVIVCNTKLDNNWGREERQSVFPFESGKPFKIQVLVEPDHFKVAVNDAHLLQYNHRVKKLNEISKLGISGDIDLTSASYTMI
T1 sequence (P16110 whole entry): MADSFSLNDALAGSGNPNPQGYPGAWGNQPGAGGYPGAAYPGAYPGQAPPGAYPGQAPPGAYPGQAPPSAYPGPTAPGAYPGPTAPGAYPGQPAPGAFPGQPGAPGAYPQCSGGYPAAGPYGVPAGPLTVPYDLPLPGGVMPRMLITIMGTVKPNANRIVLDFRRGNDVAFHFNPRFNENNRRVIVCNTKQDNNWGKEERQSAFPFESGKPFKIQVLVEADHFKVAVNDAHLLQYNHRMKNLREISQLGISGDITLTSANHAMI
T8 sequence (P16110 whole entry): as above
T4 sequence (P17931 114-250): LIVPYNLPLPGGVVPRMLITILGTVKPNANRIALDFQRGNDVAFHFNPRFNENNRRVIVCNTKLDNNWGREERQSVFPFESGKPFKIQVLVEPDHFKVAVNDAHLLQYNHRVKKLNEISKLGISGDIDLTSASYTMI
T2 sequence (P17931 whole entry): as the sequence (P17931 whole entry) above
T3 sequence (Q8TCE9 whole entry): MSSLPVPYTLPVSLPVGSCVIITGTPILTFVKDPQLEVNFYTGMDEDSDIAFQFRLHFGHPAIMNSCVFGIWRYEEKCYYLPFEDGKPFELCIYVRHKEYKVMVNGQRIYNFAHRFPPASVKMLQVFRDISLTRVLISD

B1: D11 anti-Gal-3 monoclonal antibody (hIgG1 format, LALA) (antibody, V domains shown)
VH: EVQLVESGGSLVKPGGSLRLSCAASGFTFSNYNMNWVRQAPGKGLEWISSIYGSSRYIYYADFVKGRFTISRDNAKNSLYLQMNSLRAEDTAVYYCVRSSYGGMDVWGRGTLVTVSS
VL: QSVLTQPASVSGSPGQSITISCAGTSSDVGGSYNVAWYQQHPGKAPKLMIYYDSYRPSGVSNRFSGSKSGNTASLTISGLQAEDEADYYCSSYTGYSTRVFGGGTKLEIK
notes: from scFv D11 (HuscI library, human framework 13R4); human IgG1 heavy-chain constant region, engineered with the double LALA mutation in the Fc region; IgG1 with LALA; also called D11 mAb; source: CHO-K1 cells (Evitria), transfected, purified (protein A, MabSelect SuRe)
For B1, the Kd (commonly the constant that tells how readily two partners part at equilibrium) in assay [1] was below 5 nM. In addition, the EC50 – broadly, the concentration that produces a half-maximal response – in assay [2] is 0.99 nM; in [3], 0.37 nM; in [4] it was 59.9 nM. In addition, the IC50 – broadly, the concentration that inhibits the measured activity by half – in assay [5] turned out to be 2.18 nM.

B2: E07 anti-Gal-3 monoclonal antibody (antibody, V domains shown)
VH: B1 VH with S50N, S100Y
VL: B1 VL with S32Y, N34S, A36S, Y55N
notes: human IgG1, LALA; also called E07 mAb; source: CHO-K1 cells (Evitria), purified (protein A, MabSelect SuRe)
In the case of B2, the Kd was found to be 9 nM in assay [6]; 15 nM in [7]; 21.5 nM in assay [8]; 4.14 nM in [9]; 14.4 nM in [10]. Besides, the koff (usually a measure of how fast the partners let go of each other) stood at 0.0292 s⁻¹ in assay [6]; 0.0497 s⁻¹ in [7]; 0.016 s⁻¹ in assay [8]; 0.00407 s⁻¹ in assay [9]; 0.0377 s⁻¹ in [10]. The kon (usually the rate constant with which the complex forms) in assay [6] was 3.24e+06 M⁻¹ s⁻¹; in [7], 3.31e+06 M⁻¹ s⁻¹; in assay [8], 746000 M⁻¹ s⁻¹; in [9], 983000 M⁻¹ s⁻¹; in assay [10] it was 2.61e+06 M⁻¹ s⁻¹.

B3: D11 anti-Gal-3 monoclonal antibody (antibody, V domains shown)
VH: B1 VH
VL: B1 VL
notes: human IgG1, LALA; also called D11 mAb; source: CHO-K1 cells (Evitria), purified (protein A, MabSelect SuRe)
In the case of B3, the Kd came out at 14.9 nM in assay [6]; 8.55 nM in [7]; 24.7 nM in assay [8]; 2.8 nM in assay [9]; 26.4 nM in assay [10]. Besides, the koff in assay [6] amounted to 0.0247 s⁻¹; in assay [7], 0.018 s⁻¹; in assay [8], 0.0235 s⁻¹; in assay [9] it was 0.00178 s⁻¹; in assay [10], 0.0428 s⁻¹. For the same molecule, the kon in assay [6] was 1.66e+06 M⁻¹ s⁻¹; in [7] it was 2.11e+06 M⁻¹ s⁻¹; in assay [8] it was 948000 M⁻¹ s⁻¹; in assay [9], 635000 M⁻¹ s⁻¹; in assay [10] it was 1.62e+06 M⁻¹ s⁻¹.

B4: E07 anti-Gal-3 monoclonal antibody (hIgG1 format, LALA) (antibody, V domains shown)
VH: B1 VH with S50N, S100Y
VL: B1 VL with S32Y, N34S, A36S, Y55N
notes: from scFv E07 (HuscI library, human framework 13R4); human IgG1 heavy-chain constant region, engineered with the double LALA mutation in the Fc region; IgG1 with LALA; also called E07 mAb; source: CHO-K1 cells (Evitria), transfected, purified (protein A, MabSelect SuRe)
Consider B4, for which the Kd in [1] is below 5 nM. Also, the EC50 in [2] came out at 0.3 nM; in [3] it was 0.07 nM; in [4], 90.6 nM. Besides, the IC50 in assay [5] is 1.5 nM.
